Measurements taken from paper PMC4672880.

Biological target: GCNt stabilized pre-fusion soluble version of the NiV-F glycoprotein (NiV-sFGCNt) (Nipah virus) (UniProt Q9IH63)
Assay: crystal structure

Question: For “GCNt stabilized pre-fusion soluble version of the NiV-F glycoprotein (NiV-sFGCNt) (from UniProt Q9IH63 27-488) (domain or fragment)”, which stoichiometry N is on record?
Answer: 3
